Laboratory results from patent US7446182.

Columns and labels:
[1] = target: Bacillus anthracis protective antigen (PA), 83 kDa polypeptide (Bacillus anthracis) (UniProt P13423)
[2] = target: Bacillus anthracis protective antigen (PA), 83 kDa polypeptide (Bacillus anthracis) (UniProt P13423); remark: listed apart in the source

Chain of Bacillus anthracis protective antigen (PA), 83 kDa polypeptide (Bacillus anthracis) (P13423 30-764 limits assumed): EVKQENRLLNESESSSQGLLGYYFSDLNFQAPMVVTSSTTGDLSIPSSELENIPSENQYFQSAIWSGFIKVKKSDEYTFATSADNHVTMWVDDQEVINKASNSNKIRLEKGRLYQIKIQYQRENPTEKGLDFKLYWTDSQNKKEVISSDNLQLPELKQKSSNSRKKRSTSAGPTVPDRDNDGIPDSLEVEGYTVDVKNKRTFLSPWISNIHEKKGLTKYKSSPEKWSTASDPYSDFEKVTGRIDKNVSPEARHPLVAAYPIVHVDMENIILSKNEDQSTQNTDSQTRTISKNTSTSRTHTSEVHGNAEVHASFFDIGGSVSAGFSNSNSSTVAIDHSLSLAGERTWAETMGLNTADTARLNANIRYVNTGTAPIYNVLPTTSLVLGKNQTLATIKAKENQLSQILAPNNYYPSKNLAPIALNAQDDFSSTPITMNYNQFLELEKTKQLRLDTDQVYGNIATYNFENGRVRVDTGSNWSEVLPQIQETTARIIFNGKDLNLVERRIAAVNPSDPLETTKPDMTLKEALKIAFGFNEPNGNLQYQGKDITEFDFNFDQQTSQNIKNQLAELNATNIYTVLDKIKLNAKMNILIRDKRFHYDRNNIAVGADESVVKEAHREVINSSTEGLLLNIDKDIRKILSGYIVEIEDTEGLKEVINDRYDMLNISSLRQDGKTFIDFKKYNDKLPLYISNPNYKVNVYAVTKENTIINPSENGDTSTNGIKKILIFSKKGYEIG

Substance: 14B7 scFv with the mutation L97Leu:Ala
- fold higher KD than 14B7 [1]: > 5 fold
- Kd [2]: 0.063 µM
- koff [2]: 0.019 s⁻¹
- kon [2]: 300000 M⁻¹ s⁻¹
